We go through ten molecules from patent US20150344570A1 (published 2015).

One test deals with T1, FcγRIIb (human, UniProt P31994 43-217).
T1 construct: extracellular domain; also called FcgRIIb; 2b
T1 sequence (looked up): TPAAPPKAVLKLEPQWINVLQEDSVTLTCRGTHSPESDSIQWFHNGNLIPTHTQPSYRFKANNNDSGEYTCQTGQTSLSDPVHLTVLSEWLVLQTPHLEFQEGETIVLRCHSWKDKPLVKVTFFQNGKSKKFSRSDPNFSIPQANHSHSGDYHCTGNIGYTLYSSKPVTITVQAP
Kind of test: SPR (Biacore), relative binding. Background: Surface plasmon resonance follows binding to a sensor surface in real time, without labels.

Another test addresses T2, FcγRIIIa (human, UniProt P08637 17-208).
T2 construct: extracellular domain; also called FcgRIIIa; 3a
Put plainly: SPR (Biacore), relative binding.

T2 sequence (P08637 17-208): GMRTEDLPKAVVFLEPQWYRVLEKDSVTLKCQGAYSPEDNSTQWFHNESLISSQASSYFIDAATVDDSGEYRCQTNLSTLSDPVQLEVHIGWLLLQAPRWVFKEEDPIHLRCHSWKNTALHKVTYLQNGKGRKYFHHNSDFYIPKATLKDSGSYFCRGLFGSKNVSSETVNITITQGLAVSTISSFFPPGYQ

B1: GpH7-A5/GpH7-B3 variant L328_06M/GpL16-k0 (antibody, human IgG1, kappa)
heavy 1: not shown
heavy 2: not shown
light: DIVMTQSPLSLPVTPGEPASISCQASESLVHSNRNTYLHWYLQKPGQSPQLLIYKVSNRFSGVPDRFSGSGSGTDFTLKISRVEAEDVGVYYCSQNTHVPPTFGQGTKVEIERTVAAPSVFIFPPSDEQLKSGTASVVCLLNNFYPREAKVQWKVDNALQSGNSQESVTEQDSKDSTYSLSSTLTLSKADYEKHKVYACEVTHQGLSSPVTKSFNRGEC
notes: mutation in the GpH7-B3 chain only; also called He Ab
For B1, the He/Con_2b in the test with FcγRIIb was 142 % of GpH7-A5/GpH7-B3/GpL16-k0. The He/Con_3a with FcγRIIIa was 78.6 % of GpH7-A5/GpH7-B3/GpL16-k0.

B2: GpH7-A5/GpH7-B3 variant L328_10E/GpL16-k0 (antibody, human IgG1, kappa)
heavy 1: not shown
heavy 2: not shown
light: DIVMTQSPLSLPVTPGEPASISCQASESLVHSNRNTYLHWYLQKPGQSPQLLIYKVSNRFSGVPDRFSGSGSGTDFTLKISRVEAEDVGVYYCSQNTHVPPTFGQGTKVEIERTVAAPSVFIFPPSDEQLKSGTASVVCLLNNFYPREAKVQWKVDNALQSGNSQESVTEQDSKDSTYSLSSTLTLSKADYEKHKVYACEVTHQGLSSPVTKSFNRGEC
notes: as for B1
For B2, in the test with FcγRIIb, the He/Con_2b was 172 % of GpH7-A5/GpH7-B3/GpL16-k0. Moreover, the He/Con_3a in the test with FcγRIIIa was 53.4 % of GpH7-A5/GpH7-B3/GpL16-k0.

B3: GpH7-A5/GpH7-B3 variant L328_07I/GpL16-k0 (antibody, human IgG1, kappa)
heavy 1: not shown
heavy 2: not shown
light: DIVMTQSPLSLPVTPGEPASISCQASESLVHSNRNTYLHWYLQKPGQSPQLLIYKVSNRFSGVPDRFSGSGSGTDFTLKISRVEAEDVGVYYCSQNTHVPPTFGQGTKVEIERTVAAPSVFIFPPSDEQLKSGTASVVCLLNNFYPREAKVQWKVDNALQSGNSQESVTEQDSKDSTYSLSSTLTLSKADYEKHKVYACEVTHQGLSSPVTKSFNRGEC
notes: as for B1
As for B3, the He/Con_2b with FcγRIIb was 160 % of GpH7-A5/GpH7-B3/GpL16-k0. The He/Con_3a in the test with FcγRIIIa was 84 % of GpH7-A5/GpH7-B3/GpL16-k0.

B4: GpH7-A5/GpH7-B3 variant A327_18N/GpL16-k0 (antibody, human IgG1, kappa)
heavy 1: not shown
heavy 2: not shown
light: DIVMTQSPLSLPVTPGEPASISCQASESLVHSNRNTYLHWYLQKPGQSPQLLIYKVSNRFSGVPDRFSGSGSGTDFTLKISRVEAEDVGVYYCSQNTHVPPTFGQGTKVEIERTVAAPSVFIFPPSDEQLKSGTASVVCLLNNFYPREAKVQWKVDNALQSGNSQESVTEQDSKDSTYSLSSTLTLSKADYEKHKVYACEVTHQGLSSPVTKSFNRGEC
notes: as for B1
On to B4, for which the He/Con_2b with FcγRIIb is 113 % of GpH7-A5/GpH7-B3/GpL16-k0. The He/Con_3a with FcγRIIIa is 61.1 % of GpH7-A5/GpH7-B3/GpL16-k0.

B5: GpH7-A5/GpH7-B3 variant L328_20W/GpL16-k0 (antibody, human IgG1, kappa)
heavy 1: not shown
heavy 2: not shown
light: DIVMTQSPLSLPVTPGEPASISCQASESLVHSNRNTYLHWYLQKPGQSPQLLIYKVSNRFSGVPDRFSGSGSGTDFTLKISRVEAEDVGVYYCSQNTHVPPTFGQGTKVEIERTVAAPSVFIFPPSDEQLKSGTASVVCLLNNFYPREAKVQWKVDNALQSGNSQESVTEQDSKDSTYSLSSTLTLSKADYEKHKVYACEVTHQGLSSPVTKSFNRGEC
notes: as for B1
Take B5: the He/Con_2b with FcγRIIb is 235 % of GpH7-A5/GpH7-B3/GpL16-k0. Besides, the He/Con_3a with FcγRIIIa is 37.4 % of GpH7-A5/GpH7-B3/GpL16-k0.

B6: GpH7-A5/GpH7-B3 variant A327_09D/GpL16-k0 (antibody, human IgG1, kappa)
heavy 1: not shown
heavy 2: not shown
light: DIVMTQSPLSLPVTPGEPASISCQASESLVHSNRNTYLHWYLQKPGQSPQLLIYKVSNRFSGVPDRFSGSGSGTDFTLKISRVEAEDVGVYYCSQNTHVPPTFGQGTKVEIERTVAAPSVFIFPPSDEQLKSGTASVVCLLNNFYPREAKVQWKVDNALQSGNSQESVTEQDSKDSTYSLSSTLTLSKADYEKHKVYACEVTHQGLSSPVTKSFNRGEC
notes: as for B1
As for B6, the He/Con_2b with FcγRIIb is 172 % of GpH7-A5/GpH7-B3/GpL16-k0. Moreover, the He/Con_3a with FcγRIIIa is 83.7 % of GpH7-A5/GpH7-B3/GpL16-k0.

B7: GpH7-A5/GpH7-B3 variant L328_19Q/GpL16-k0 (antibody, human IgG1, kappa)
heavy 1: not shown
heavy 2: not shown
light: DIVMTQSPLSLPVTPGEPASISCQASESLVHSNRNTYLHWYLQKPGQSPQLLIYKVSNRFSGVPDRFSGSGSGTDFTLKISRVEAEDVGVYYCSQNTHVPPTFGQGTKVEIERTVAAPSVFIFPPSDEQLKSGTASVVCLLNNFYPREAKVQWKVDNALQSGNSQESVTEQDSKDSTYSLSSTLTLSKADYEKHKVYACEVTHQGLSSPVTKSFNRGEC
notes: as for B1
On to B7, for which the He/Con_2b in the test with FcγRIIb was 105 % of GpH7-A5/GpH7-B3/GpL16-k0. For the same molecule, the He/Con_3a with FcγRIIIa was 81.1 % of GpH7-A5/GpH7-B3/GpL16-k0.

B8: GpH7-A5/GpH7-B3 variant L328_04F/GpL16-k0 (antibody, human IgG1, kappa)
heavy 1: not shown
heavy 2: not shown
light: DIVMTQSPLSLPVTPGEPASISCQASESLVHSNRNTYLHWYLQKPGQSPQLLIYKVSNRFSGVPDRFSGSGSGTDFTLKISRVEAEDVGVYYCSQNTHVPPTFGQGTKVEIERTVAAPSVFIFPPSDEQLKSGTASVVCLLNNFYPREAKVQWKVDNALQSGNSQESVTEQDSKDSTYSLSSTLTLSKADYEKHKVYACEVTHQGLSSPVTKSFNRGEC
notes: as for B1
For the molecule B8, in the test with FcγRIIb, the He/Con_2b is 219 % of GpH7-A5/GpH7-B3/GpL16-k0. Also, the He/Con_3a with FcγRIIIa was 79.3 % of GpH7-A5/GpH7-B3/GpL16-k0.

B9: GpH7-A5/GpH7-B3 variant I332_04F/GpL16-k0 (antibody, human IgG1, kappa)
heavy 1: not shown
heavy 2: not shown
light: DIVMTQSPLSLPVTPGEPASISCQASESLVHSNRNTYLHWYLQKPGQSPQLLIYKVSNRFSGVPDRFSGSGSGTDFTLKISRVEAEDVGVYYCSQNTHVPPTFGQGTKVEIERTVAAPSVFIFPPSDEQLKSGTASVVCLLNNFYPREAKVQWKVDNALQSGNSQESVTEQDSKDSTYSLSSTLTLSKADYEKHKVYACEVTHQGLSSPVTKSFNRGEC
notes: as for B1
On to B9, for which the He/Con_2b with FcγRIIb is 104 % of GpH7-A5/GpH7-B3/GpL16-k0. The He/Con_3a with FcγRIIIa is 97.6 % of GpH7-A5/GpH7-B3/GpL16-k0.

B10: GpH7-A5/GpH7-B3 variant A330_01G/GpL16-k0 (antibody, human IgG1, kappa)
heavy 1: not shown
heavy 2: not shown
light: DIVMTQSPLSLPVTPGEPASISCQASESLVHSNRNTYLHWYLQKPGQSPQLLIYKVSNRFSGVPDRFSGSGSGTDFTLKISRVEAEDVGVYYCSQNTHVPPTFGQGTKVEIERTVAAPSVFIFPPSDEQLKSGTASVVCLLNNFYPREAKVQWKVDNALQSGNSQESVTEQDSKDSTYSLSSTLTLSKADYEKHKVYACEVTHQGLSSPVTKSFNRGEC
notes: as for B1
Take B10: the He/Con_2b with FcγRIIb is 104 % of GpH7-A5/GpH7-B3/GpL16-k0. Moreover, in the test with FcγRIIIa, the He/Con_3a was 89.1 % of GpH7-A5/GpH7-B3/GpL16-k0.
